Among the data in patent US20260103536A1 are Adjusted* EC50 values, retold here.

The target of the experiment is CD38 on cells (Raji, Daudi, REH, CD38-transfected HEK293) (human) (UniProt P28907). The experiment is described as follows: flow cytometry on Raji cells; top asymptote fixed at about the maximum response of Darzalex. Background: In flow cytometry, cells or beads pass a laser one at a time.

In turn, Darzalex® (CD38 control) (antibody) registered an Adjusted* EC50 of 1.27 nM.
